Experimental data from article PMC4868323, “Interaction of Toll-Like Receptors with the Molecular Chaperone Gp96 Is Essential for Its Activation of Cytotoxic T Lymphocyte Response” (PLoS ONE, 2016).
No end group written: not given here.

Key:
Test in all cases: ELISA; biotinylated HBc87-95 on 96-well streptavidin plates; serial dilutions of gp96 0.03–200 μg/mL in 20 mM HEPES pH 7.2, 20 mM NaCl, 2 mM MgCl2, 100 mM KCl, 1.5 h; detected with rat anti-grp94 antibody; 300 μM radicicol as inhibitor
Conditions in all cases: both partners purified
[1] = target: T1, recombinant wild-type gp96 (gp96-wt), His-tagged (human, UniProt P14625 22-803, FITC label on the portion used for flow cytometry (sites not given))
T1 construct: human gp96 (GRP94), mature protein; cDNA in pET28a(+) subcloned with its His tag into pFastBac1; the 3' primer ends at ...EKDEL stop; The tag's end is read from the printed sense primer (MGSSHH..., as in pET28a); Unlabelled in the co-IP and ELISA, FITC-labelled in flow cytometry; also called FITC-gp96-wt; glucose-regulated protein 94; source: baculovirus (Bac-to-Bac, pFastBac1), purified …

[2] = target: T2, native mouse gp96 (mgp96) (mouse, UniProt P08113 22-802)
T2 construct: gp96 (GRP94, endoplasmin) purified from mouse liver; also called native gp96; source: purified from healthy mouse livers

[3] = target: T3, gp96 with Ala substitutions at the conserved residues in the first half of the CBD (gp96-mut), His-tagged (human, UniProt P14625 22-803, GWSGNMER (653-660) to AASAAAAA, read from the printed gp96-mut primer, FITC label on the portion used for flow cytometry (sites not given))
T3 construct: human gp96 (GRP94), mature protein, with Ala substitutions in the GWXGNMER motif of the CBD; positions follow the legend's 653-660 for the same eight residues deleted in gp96-ΔCBD; also called mutated gp96; mutant gp96; source: baculovirus (Bac-to-Bac, pFastBac1), purified (Ni-sepharose, Hitrap Q HP, Superdex 200)

Measured: binding result

T2 sequence (P08113 22-802): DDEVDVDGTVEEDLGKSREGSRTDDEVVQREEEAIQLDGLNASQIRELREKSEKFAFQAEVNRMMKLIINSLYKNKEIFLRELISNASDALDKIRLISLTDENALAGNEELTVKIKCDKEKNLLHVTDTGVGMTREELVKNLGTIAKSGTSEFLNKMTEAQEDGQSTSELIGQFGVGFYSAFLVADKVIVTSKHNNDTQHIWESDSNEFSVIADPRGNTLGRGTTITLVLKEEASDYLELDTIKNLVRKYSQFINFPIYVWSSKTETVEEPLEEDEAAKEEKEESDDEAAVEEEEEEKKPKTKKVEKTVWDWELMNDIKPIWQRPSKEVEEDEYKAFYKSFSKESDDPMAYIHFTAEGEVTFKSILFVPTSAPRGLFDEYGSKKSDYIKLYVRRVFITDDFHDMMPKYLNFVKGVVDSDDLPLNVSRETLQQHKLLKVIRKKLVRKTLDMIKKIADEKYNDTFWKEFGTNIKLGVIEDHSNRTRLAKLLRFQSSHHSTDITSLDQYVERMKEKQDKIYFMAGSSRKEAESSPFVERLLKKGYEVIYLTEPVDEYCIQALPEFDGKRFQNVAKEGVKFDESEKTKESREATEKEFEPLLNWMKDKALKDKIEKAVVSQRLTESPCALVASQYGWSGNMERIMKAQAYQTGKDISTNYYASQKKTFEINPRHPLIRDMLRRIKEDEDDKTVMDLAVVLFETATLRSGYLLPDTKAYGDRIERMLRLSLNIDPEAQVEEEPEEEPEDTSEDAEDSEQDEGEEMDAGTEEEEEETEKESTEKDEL
T1 sequence (P14625 22-803): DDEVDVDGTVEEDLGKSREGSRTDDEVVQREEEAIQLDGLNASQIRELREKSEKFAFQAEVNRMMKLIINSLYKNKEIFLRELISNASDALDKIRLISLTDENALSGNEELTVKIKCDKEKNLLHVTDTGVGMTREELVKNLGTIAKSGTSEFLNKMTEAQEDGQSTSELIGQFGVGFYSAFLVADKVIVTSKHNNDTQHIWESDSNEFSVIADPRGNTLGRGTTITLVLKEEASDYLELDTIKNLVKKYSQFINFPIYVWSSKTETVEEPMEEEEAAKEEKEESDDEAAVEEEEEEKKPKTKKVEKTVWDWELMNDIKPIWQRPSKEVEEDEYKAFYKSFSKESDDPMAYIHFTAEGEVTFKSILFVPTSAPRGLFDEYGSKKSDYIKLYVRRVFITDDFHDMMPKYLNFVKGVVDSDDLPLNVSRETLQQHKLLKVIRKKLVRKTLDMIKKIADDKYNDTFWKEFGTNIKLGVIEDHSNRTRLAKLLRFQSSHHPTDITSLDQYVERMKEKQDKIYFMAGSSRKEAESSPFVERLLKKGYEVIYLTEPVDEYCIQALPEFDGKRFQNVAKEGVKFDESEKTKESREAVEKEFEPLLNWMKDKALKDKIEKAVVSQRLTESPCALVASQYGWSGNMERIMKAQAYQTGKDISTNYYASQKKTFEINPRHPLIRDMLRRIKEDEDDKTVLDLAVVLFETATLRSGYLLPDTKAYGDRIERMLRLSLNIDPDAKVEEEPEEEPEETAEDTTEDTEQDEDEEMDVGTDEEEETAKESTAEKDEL
T3 sequence (P14625 other isoform, or with tags, fused parts or gaps with the stated changes): as the sequence (P14625 22-803) above, with G632A, W633A, G635A, N636A, M637A, E638A, R639A counted along it

B1: biotinylated peptide HBc87-95 (peptide)
peptide: SYVNTNMGL
modifications: also: biotinylated, position not given here
notes: also called HBcAg_(87–95); source: synthetic peptide (GL Biochem Ltd.)
binds: all assays above
